Measured values: article PMC8786865 (Nature Communications, 2022)
Several values for one entry are separate records, joined by “and”; a condition that tells them apart may be missing. Equal entries are not always repeated.

Columns and labels:
[1] = target: SARS-CoV-2 spike receptor-binding domain (RBD) (SARS-CoV-2, Wuhan-Hu-1, UniProt P0DTC2)
[2] = target: SARS-CoV-2 spike protein receptor-binding domain (RBD) (SARS-CoV-2, UniProt P0DTC2); test: cell-based or functional assay
[3] = target: T1, SARS-CoV-2 spike receptor-binding domain (SARS-CoV-2, Wuhan-Hu-1, UniProt P0DTC2); test: SPR; Carterra LSA array, HC200M chip; IgG captured on immobilised anti-human Fc; RBD as analyte, 7-point dilution series 300 nM to 411 pM in 1x HBSTE with 0.5 mg/mL BSA; association 5 min, dissociation 11 min; one-site binding model; two independent measurements; conditions: both partners purified
T1 construct: also called RBD; SARS-CoV-2 RBD

B1: H9 (antibody, V domains shown)
VH: EVQLVESGAEVKKPGASVKVSCKVSGYSFTDHSIHWVRQAPGKGLEWMGGINPYTGDTIYAQKFQGRVTMTEDTSTDTAYMELSSLKSEDTAVYYCARDAYSGSYPYYYYGMDVWGQGTTVTVSS
VL: DIQMTQSPSSVSASVGDRVTITCRASQNIDTFLAWYQQKPGKAPKLLIYASSNLASGVPSRFSGSGSGTDFTLTISSLQPEDFANYYCHQYATYPWTFGDGTKVEIK
binding result [1]: binds

B2: #41 (antibody, V domains shown)
VH: QVQLVQSGAEVKKPGASVKVSCKVSGYTSPATIHWVRQAPGKGLEWMGGISPYKGDTIYAQKFQGRVTMTEDTSTDTAYMELSSLKSEDTAVYYCAKDSYYYDSSGSGLGGGFDYWGQGTLVTVSS
VL: DIQMTQSPSSVSASVGDRVTITCRASRDISSYLAWYQQKPGKAPKLLIYGASTRASGVPSRFSGSGSGTDFTLTISSLQPEDFANYYCLQYSIYPWTFGGGTKVEIK
SARS-CoV-2 pseudovirus IC50 (neutralisation, HeLa-hACE2 cells); pair blocked: ACE2 with RBD [2]: 3.7 ng/mL

B3: #41 (antibody, V domains shown)
VH: B2 VH
VL: B2 VL
Kd [3]: 0.257 nM and 0.333 nM
